The text below walks through data of IntAct's records for PubMed 17699755.

For the assay, the target named is hfr1_arath HFR1 (UniProt Q9FE22).
Chain of hfr1_arath HFR1 (Q9FE22 whole entry): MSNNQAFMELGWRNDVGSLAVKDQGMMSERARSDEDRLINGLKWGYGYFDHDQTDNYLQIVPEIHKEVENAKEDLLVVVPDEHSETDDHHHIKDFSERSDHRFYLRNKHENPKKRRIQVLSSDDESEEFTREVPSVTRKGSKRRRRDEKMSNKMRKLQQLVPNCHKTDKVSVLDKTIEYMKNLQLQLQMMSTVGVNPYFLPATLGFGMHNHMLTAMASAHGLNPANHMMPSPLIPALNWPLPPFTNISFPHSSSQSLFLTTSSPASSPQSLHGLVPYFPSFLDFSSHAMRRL

Chain of Transcription factor LAF1 (Arabidopsis thaliana (Mouse-ear cress)), Q9M0K4 R97A (Q9M0K4 whole entry R97A): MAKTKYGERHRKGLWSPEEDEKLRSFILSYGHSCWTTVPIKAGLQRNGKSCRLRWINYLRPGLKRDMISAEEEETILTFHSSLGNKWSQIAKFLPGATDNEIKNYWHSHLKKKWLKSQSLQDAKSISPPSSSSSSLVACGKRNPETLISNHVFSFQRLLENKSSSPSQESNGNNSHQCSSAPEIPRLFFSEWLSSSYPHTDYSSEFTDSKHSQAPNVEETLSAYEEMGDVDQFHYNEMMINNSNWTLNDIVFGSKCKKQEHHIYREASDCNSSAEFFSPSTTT

Regarding “Transcription factor LAF1 (Arabidopsis thaliana (Mouse-ear cress)), Q9M0K4 R97A”, the “effect of a mutation on the interaction” value is listed as “disrupting interaction”. For “Transcription factor LAF1 (Arabidopsis thaliana (Mouse-ear cress)), Q9M0K4 W87A” the value was “decreasing interaction”.
